Molecular target: T1, IL-12 (Human IL12 (His Tag)), Sino Biological Cat. No. CT-050-H08H-20 (human, UniProt P29460 23-328; P29459 23-219)
T1 construct: Bought His-tagged p35/p40 heterodimer
T1 sequence (looked up) 1: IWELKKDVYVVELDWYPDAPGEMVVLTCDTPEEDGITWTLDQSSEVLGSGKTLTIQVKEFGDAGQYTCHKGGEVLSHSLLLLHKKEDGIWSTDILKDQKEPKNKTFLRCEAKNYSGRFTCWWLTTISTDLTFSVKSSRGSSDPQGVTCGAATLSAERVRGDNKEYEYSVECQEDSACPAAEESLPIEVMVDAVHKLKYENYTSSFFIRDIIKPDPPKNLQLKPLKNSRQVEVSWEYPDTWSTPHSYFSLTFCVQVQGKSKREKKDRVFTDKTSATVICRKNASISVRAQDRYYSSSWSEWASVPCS
T1 sequence (looked up) 2: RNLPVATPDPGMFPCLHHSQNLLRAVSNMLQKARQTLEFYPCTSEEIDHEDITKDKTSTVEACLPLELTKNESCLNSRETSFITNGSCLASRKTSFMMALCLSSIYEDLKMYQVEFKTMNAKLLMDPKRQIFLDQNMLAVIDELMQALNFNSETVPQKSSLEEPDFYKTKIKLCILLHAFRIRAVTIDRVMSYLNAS
Experiment: FACS competition, IL12-His (40 nM mixed 1:1) on 293T-IL-12RB1&IL-23R cells
Experimental: 200 μL of 1% PBSA was added into each sample, and the mixture was centrifuged at 1200 rpm for 5 min to discard the supernatant. According to experiment design, correspondingly diluted antibody (highest final concentration of 60 μg/mL, 3-fold dilution, 8 concentrations in total) and IL12-His (Sino Biological, Cat. No.: CT-050-H08H-20) (40 nM) were mixed at a ratio of 1:1, and a blank control was set. The mixture of antibody and IL12 was incubated on ice for 30 min and then added to the cell precipitate at 100 μL/sample. The resulting mixture was well mixed and incubated on ice for 60 min. 200 μL of 1% PBSA was added, and the mixture was centrifuged at 1200 rpm for 5 min to discard the supernatant, and then washed twice. THETM His tag antibody (FITC) (Genscript, Cat. No.: A01620) was diluted at a ratio of 1:500 and added to each tube at 100 μL. The mixture was well mixed and incubated on ice for 40 min in the absence of light. 200 μL of 1% PBSA was added, and the mixture was centrifuged at 1200 rpm for 5 min to discard the supernatant, and then washed twice. 1% PBSA was added at 200 μL/tube, and the cells were resuspended and transferred to a flow cytometry tube for testing.

B1: H8L15 (antibody, human IgG1, kappa, V domains shown)
VH: EVQLVQSGAEVKKPGESLKISCQSSGYTFTSYWIGWVRQMPGQGLEWIGIMSPVDSDIRYNPMFRGQVTMSVDKSSSTAYLQWSSLKASDTAMYYCARRRPGQGYFDFWGQGTMVTVSS
VL: EIVLTQSPATLSASPGERATISCRASQSVGTWVAWYQQKPGQAPRSLIYAASNLQSGIPARFSGSGSGTDFTLTISSLEPEDFAVYYCQQYNIYPYTFGQGTRLEIKR
notes: IgG1 (P01857) / kappa (P01834) constant regions
Question: B1 was tested. Which EC50 did it give?
Answer: The EC50 was 1.46 µg/mL.

— patent US20260217813A1 (published 2026)
